Data taken from paper PMC3873461, “The CD8-Derived Chemokine XCL1/Lymphotactin Is a Conformation-Dependent, Broad-Spectrum Inhibitor of HIV-1” (PLoS Pathogens, 2013).
Where a chain is given by its changes, count along the chain named. Names and notes keep the numbering of the source.

B1: recombinant wild type (WT) XCL1/lymphotactin (ligand, human, UniProt P47992 22-114, looked up)
chain: VGSEVSDKRTCVSLTTQRLPVSRIKTYTITEGSLRAVIFITKRGLKVCADPQATWVRDVVRSMDRKSNTRNNMIQTKPTGTQQSTNTAVTLTG
notes: also called XCL1 WT
B2: XCL1 W55D, variant that preferentially adopts the all-β, alternatively-folded dimeric structure (ligand, human, UniProt P47992 22-114, looked up)
chain: B1 chain with W55D

Biological target: T1, purified YU2 gp120 protein (HIV-1 external envelope glycoprotein) (HIV-1 (strain YU2), UniProt P35961 32-498)
T1 construct: also called HIV-1 envelope glycoprotein gp120; source: purified
Experiment: pull-down
Conditions: both partners purified

Binder | binding result
B1 | binds
B2 | binds
